Reference: patent US20240261333A1, “NOVEL TARGETS FOR ENHANCING ANTI-TUMOR IMMUNITY” (THE BROAD INSTITUTE, INC., priority 2021, published 2024)

T1: B3GNT2 (Homo sapiens, UniProt Q9NY97)
T1 construct: The respective ORFs of candidate genes [CD274 (NM_014143), MCL1 (NM_021960), JUNB (NM_002229), and B3GNT2 (NM_006577)] were synthesized; expressed in transfected cells; host or cells: A375 melanoma cells (lentiviral ORF overexpression)
T1 sequence (Q9NY97 1-397): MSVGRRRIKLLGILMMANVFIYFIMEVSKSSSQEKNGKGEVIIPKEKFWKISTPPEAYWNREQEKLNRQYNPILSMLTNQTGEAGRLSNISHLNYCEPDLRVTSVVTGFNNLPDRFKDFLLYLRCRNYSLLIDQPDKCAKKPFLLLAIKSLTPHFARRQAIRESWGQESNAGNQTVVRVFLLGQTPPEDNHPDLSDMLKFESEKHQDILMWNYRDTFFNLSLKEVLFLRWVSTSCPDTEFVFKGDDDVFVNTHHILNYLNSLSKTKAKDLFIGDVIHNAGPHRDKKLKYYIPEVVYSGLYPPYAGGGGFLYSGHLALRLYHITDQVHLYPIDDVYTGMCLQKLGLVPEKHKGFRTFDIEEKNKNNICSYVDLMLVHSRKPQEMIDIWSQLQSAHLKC


Target: T1, B3GNT2
Assay: Co-IP of FLAG-tagged B3GNT2 followed by mass spectrometry
Assay type: cell-based
Set-up: C-term IgG / C-term flag: unit not given here
Details: mass spectrometry count, unit not given; for C-term flag / N-term FLAG: Co-IP with FLAG antibody; for C-term flag / C-term IgG: C-terminally FLAG-tagged B3GNT2; for N-term FLAG / N-term IgG: N-terminally FLAG-tagged B3GNT2; for C-term IgG / N-term IgG: Co-IP with IgG control antibody
Method in brief: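 FLAG-tagged B3GNT2 immunoprecipitated from cell lysate (HEPES, 1% Triton X-100, 150 mM NaCl) with anti-FLAG versus […], overnight at 4° C, then captured on Protein A/G magnetic beads for 4 h. Two biological replicates per condition. Peptides fractionated and analyzed by nano-LC on an Orbitrap Elite in data-dependent mode.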

C-term flag	N-term FLAG	C-term IgG	N-term IgG	Molecule
3	5	0	0	PSMB6 (protein) TTIMAVQFDGGVVLGADSRTTTGSYIANRVTDKLTPIHDRIFCCRSGSAADTQAVADAVTYQLGFHSIELNEPPLVHTAASLFKEMCYRYREDLMAGIIIAGWDPQEGGQVYSVPMGGMMVRQSFAIGGSGSSYIYGYVDATYREGMTKEECLQFTANALALAMERDGSSGGVIRLAAIAESGVERQVLLGDQIPKFAVATLPPA
2	0	0	0	KTN1 (protein) MEFYESAYFIVLIPSIVITVIFLFFWLFMKETLYDEVLAKQKREQKLIPTKTDKKKAEKKKNKKKEIQNGNLHESDSESVPRDFKLSDALAVEDDQVAPVPLNVVETSSSVRERKKKEKKQKPVLEEQVIKESDASKIPGKKVEPVPVTKQPTPPSEAAASKKKPGQKKSKNGSDDQDKKVETLMVPSKRQEALPLHQETKQESGSGKKKASSKKQKTENVFVDEPLIHATTYIPLMDNADSSPVVDKREVIDLLKPDQVEGIQKSGTKKLKTETDKENAEVKFKDFLLSLKTMMFSEDEALCVVDLLKEKSGVIQDALKKSSKGELTTLIHQLQEKDKLLAAVKEDAAATKDRCKQLTQEMMTEKERSNVVITRMKDRIGTLEKEHNVFQNKIHVSYQETQQMQMKFQQVREQMEAEIAHLKQENGILRDAVSNTTNQLESKQSAELNKLRQDYARLVNELTEKTGKLQQEEVQKKNAEQAATQLKVQLQEAERRWEEVQSYIRKRTAEHEAAQQDLQSKFVAKENEVQSLHSKLTDTLVSKQQLEQRLMQLMESEQKRVNKEESLQMQVQDILEQNEALKAQIQQFHSQIAAQTSASVLAEELHKVIAEKDKQIKQTEDSLASERDRLTSKEEELKDIQNMNFLLKAEVQKLQALANEQAAAAHELEKMQQSVYVKDDKIRLLEEQLQHEISNKMEEFKILNDQNKALKSEVQKLQTLVSEQPNKDVVEQMEKCIQEKDEKLKTVEELLETGLIQVATKEEELNAIRTENSSLTKEVQDLKAKQNDQVSFASLVEELKKVIHEKDGKIKSVEELLEAELLKVANKEKTVQDLKQEIKALKEEIGNVQLEKAQQLSITSKVQELQNLLKGKEEQMNTMKAVLEEKEKDLANTGKWLQDLQEENESLKAHVQEVAQHNLKEASSASQFEELEIVLKEKENELKRLEAMLKERESDLSSKTQLLQDVQDENKLFKSQIEQLKQQNYQQASSFPPHEELLKVISEREKEISGLWNELDSLKDAVEHQRKKNNDLREKNWEAMEALASTEKMLQDKVNKTSKERQQQVEAVELEAKEVLKKLFPKVSVPSNLSYGEWLHGFEKKAKECMAGTSGSEEVKVLEHKLKEADEMHTLLQLECEKYKSVLAETEGILQKLQRSVEQEENKWKVKVDESHKTIKQMQSSFTSSEQELERLRSENKDIENLRREREHLEMELEKAEMERSTYVTEVRELKDLLTELQKKLDDSYSEAVRQNEELNLLKAQLNETLTKLRTEQNERQKVAGDLHKAQQSLELIQSKIVKAAGDTTVIENSDVSPETESSEKETMSVSLNQTVTQLQQLLQAVNQQLTKEKEHYQVLE
2	0	0	0	ERP44 (protein) EITSLDTENIDEILNNADVALVNFYADWCRFSQMLHPIFEEASDVIKEEFPNENQVVFARVDCDQHSDIAQRYRISKYPTLKLFRNGMMMKREYRGQRSVKALADYIRQQKSDPIQEIRDLAEITTLDRSKRNIIGYFEQKDSDNYRVFERVANILHDDCAFLSAFGDVSKPERYSGDNIIYKPPGHSAPDMVYLGAMTNFDVTYNWIQDKCVPLVREITFENGEELTEEGLPFLILFHMKEDTESLEIFQNEVARQLISEKGTINFLHADCDKFRHPLLHIQKTPADCPVIAIDSFRHMYVFGDFKDVLIPGKLKQFVFDLHSGKLHREFHHGPDPTDTAPGEQAQDVASSPPESSFQKLAPSEYRYTLLRDRDEL
2	0	0	0	TRAFD1 (protein) AEFLDDQETRLCDNCKKEIPVFNFTIHEIHCQRNIGMCPTCKEPFPKSDMETHMAAEHCQVTCKCNKKLEKRLLKKHEETECPLRLAVCQHCDLELSILKLKEHEDYCGARTELCGNCGRNVLVKDLKTHPEVCGREGEEKRNEVAIPPNAYDESWGQDGIWIASQLLRQIEALDPPMRLPRRPLRAFESDVFHNRTTNQRNITAQVSIQNNLFEEQERQERNRGQQPPKEGGEESANLDFMLALSLQNEGQASSVAEQDFWRAVCEADQSHGGPRSLSDIKGAADEIMLPCEFCEELYPEELLIDHQTSCNPSRALPSLNTGSSSPRGVEEPDVIFQNFLQQAASNQLDSLMGLSNSHPVEESIIIPCEFCGVQLEEEVLFHHQDQCDQRPATATNHVTEGIPRLDSQPQETSPELPRRRVRHQGDLSSGYLDDTKQETANGPTSCLPPSRPINNMTATYNQLSRSTSGPRPGCQPSSPCVPKLSNSDSQDIQGRNRDSQNGAIAPGHVSVIRPPQNLYPENIVPSFSPGPSGRYGASGRSEGGRNSRVTPAAANYRSRTAKAKPSKQQGAGDAEEEEEE
16	2	2	0	RRBP1 (protein) MDIYDTQTLGVVVFGGFMVVSAIGIFLVSTFSMKETSYEEALANQRKEMAKTHHQKVEKKKKEKTVEKKGKTKKKEEKPNGKIPDHDPAPNVTVLLREPVRAPAVAVAPTPVQPPIIVAPVATVPAMPQEKLASSPKDKKKKEKKVAKVEPAVSSVVNSIQVLTSKAAILETAPKEVPMVVVPPVGAKGNTPATGTTQGKKAEGTQNQSKKAEGAPNQGRKAEGTPNQGKKTEGTPNQGKKAEGTPNQGKKAEGTPNQGKKAEGAQNQGKKVDTTPNQGKKVEGAPTQGRKAEGAQNQAKKVEGAQNQGKKAEGAQNQGKKGEGAQNQGKKAEGAQNQGKKAEGAQNQGKKAEGAQNQGKKAEGAQNQGKKAEGAQNQGKKAEGAQNQGKKVEGAQNQGKKAEGAQNQGKKAEGAQNQGKKAEGAQNQGKKAEGAQNQGKKAEGAQNQGKKAEGAQNQGKKAEGAQNQGKKVEGAQNQGKKAEGAQNQGKKAEGAQNQGKKAEGAQNQGQKGEGAQNQGKKTEGAQGKKAERSPNQGKKGEGAPIQGKKADSVANQGTKVEGITNQGKKAEGSPSEGKKAEGSPNQGKKADAAANQGKKTESASVQGRNTDVAQSPEAPKQEAPAKKKSGSKKKGEPGPPDADGPLYLPYKTLVSTVGSMVFNEGEAQRLIEILSEKAGIIQDTWHKATQKGDPVAILKRQLEEKEKLLATEQEDAAVAKSKLRELNKEMAAEKAKAAAGEAKVKKQLVAREQEITAVQARMQASYREHVKEVQQLQGKIRTLQEQLENGPNTQLARLQQENSILRDALNQATSQVESKQNAELAKLRQELSKVSKELVEKSEAVRQDEQQRKALEAKAAAFEKQVLQLQASHRESEEALQKRLDEVSRELCHTQSSHASLRADAEKAQEQQQQMAELHSKLQSSEAEVRSKCEELSGLHGQLQEARAENSQLTERIRSIEALLEAGQARDAQDVQASQAEADQQQTRLKELESQVSGLEKEAIELREAVEQQKVKNNDLREKNWKAMEALATAEQACKEKLLSLTQAKEESEKQLCLIEAQTMEALLALLPELSVLAQQNYTEWLQDLKEKGPTLLKHPPAPAEPSSDLASKLREAEETQSTLQAECDQYRSILAETEGMLRDLQKSVEEEEQVWRAKVGAAEEELQKSRVTVKHLEEIVEKLKGELESSDQVREHTSHLEAELEKHMAAASAECQNYAKEVAGLRQLLLESQSQLDAAKSEAQKQSDELALVRQQLSEMKSHVEDGDIAGAPASSPEAPPAEQDPVQLKTQLEWTEAILEDEQTQRQKLTAEFEEAQTSACRLQEELEKLRTAGPLESSETEEASQLKERLEKEKKLTSDLGRAATRLQELLKTTQEQLAREKDTVKKLQEQLEKAEDGSSSKEGTSV
9	0	0	0	PDIA4 (protein) VAGAEGPDEDSSNRENAIEDEEEEEEEDDDEEEDDLEVKEENGVLVLNDANFDNFVADKDTVLLEFYAPWCGHCKQFAPEYEKIANILKDKDPPIPVAKIDATSASVLASRFDVSGYPTIKILKKGQAVDYEGSRTQEEIVAKVREVSQPDWTPPPEVTLVLTKENFDEVVNDADIILVEFYAPWCGHCKKLAPEYEKAAKELSKRSPPIPLAKVDATAETDLAKRFDVSGYPTLKIFRKGRPYDYNGPREKYGIVDYMIEQSGPPSKEILTLKQVQEFLKDGDDVIIIGVFKGESDPAYQQYQDAANNLREDYKFHHTFSTEIAKFLKVSQGQLVVMQPEKFQSKYEPRSHMMDVQGSTQDSAIKDFVLKYALPLVGHRKVSNDAKRYTRRPLVVVYYSVDFSFDYRAATQFWRSKVLEVAKDFPEYTFAIADEEDYAGEVKDLGLSESGEDVNAAILDESGKKFAMEPEEFDSDTLREFVTAFKKGKLKPVIKSQPVPKNNKGPVKVVVGKTFDSIVMDPKKDVLIEFYAPWCGHCKQLEPVYNSLAKKYKGQKGLVIAKMDATANDVPSDRYKVEGFPTIYFAPSGDKKNPVKFEGGDRDLEHLSKFIEEHATKLSRTKEEL
